The data set concerns the molecule itself. In words: SEC. On the technique in general: SEC sorts molecules by how far they enter the pores of the column.

Numbering of substitutions follows the chain as printed. Numbers in names are those of the source.

B1: P2–OLD H332A (ATPase domain mutant), His-MBP-bdSUMO fusion (enzyme, phage P2, UniProt P13520 1-586, looked up)
chain: MTVRLASVSISNFRSCKSTSAILRPFTALVGYNNAGKSNIILAIKWLLDGSLISESDVYDPTHPVSVEGVIQGITDDTLSLLTEENQQKIAPFIIDGTLTFARRQEFNKETGKAKKSLDVYDGTTWKKNPGGIDGAISNIFPEPIHIPAMSDAVEDSTKCKNTTTIGKILSAIVSEIKQEHEEKFSKNISEIGKYLSHNGENRLESLNKIDSGVNKKVNQFFPDVSVKLHFPTPTLDEIFKSGTLKVFESREDEPVMRDISRFGHGTQRSIQMALIQYLAEIKKENSESKKSNTLIFIDEPELYLHPSAINSVRESLVTLSESGYQVIISTASASMLSAKHAANAIQVCKDSNGTIARKTISEKIEELYKSSSPQLHSAFTLSNSSYLLFSEEVLLVEGKTETNVLYALYKKINGHELNPSKICIVAVDGKGSLFKMSQIINAIGIKTRILADCDFLSNILLTEHKDLLSTECDNLLTALIESINSGELSLNTKVTTFESFKSISSKDFIKICNHEKTQKHIHEIHQKLKDNGIYIWKSGDIEAVYGFGKKQTEWDSLLDCLCDESKDVRAVIKKYDEMEDFIKWI
As to B1, the binding result is recorded as “binds”.

B2: P2–OLD H332A/E402A (ATPase and Toprim double mutant), His-MBP-bdSUMO fusion (enzyme, phage P2, UniProt P13520 1-586, looked up)
chain: B1 chain with E402A
Take B2: the binding result was “binds”.

B3: P2–OLD E402A (Toprim domain mutant), His-MBP-bdSUMO fusion (enzyme, phage P2, UniProt P13520 1-586, looked up)
chain: B1 chain with A332H, E402A
Regarding B3, the binding result is “binds”.

These data come from article PMC12445682 (Nucleic Acids Research, 2025).
